Results taken from article PMC9384509.

Experiments:
[1] = biological target: human Angiotensin Converting Enzyme 2 (ACE2, amino acids 19-615) fused to human IgG Fc (human) (UniProt Q9BYF1)
[2] = biological target: human Angiotensin Converting Enzyme 2 (ACE2, amino acids 19-615) fused to human IgG Fc (human) (UniProt Q9BYF1); assay: SPR

| Substance | reduction of the surface membrane ACE2 level on pericytes (immunohistochemistry, overlap with PDGFRβ) after 3 h of RBD (0.7 mg/l) on hamster brain slices; ACE2 is the endogenous hamster protein [1] | percent reduction of binding against RBD-WT [2] |
| --- | --- | --- |
| SARS-CoV-2 receptor binding domain (RBD, original Wuhan variant), amino acids 330-532 (domain or fragment) | 32% |  |
| SARS-CoV-2 receptor binding domain Y489R mutant (RBD-Y489R) (domain or fragment; other documents disagree on this pair) |  | 94% |
